# Assay results taken from patent US20220378893A1 (INDUSTRY UNIVERSITY COOPERATION FOUNDATION HANYANG …, published 2022).
# B1: neutrophil cytosol factor 1 (p47phox), endogenous in THP-1 cells (other)
# chain: MGDTFIRHIALLGFEKRFVPSQHYVYMFLVKWQDLSEKVVYRRFTEIYEFHKTLKEMFPIEAGAINPENRIIPHLPAPKWFDGQRAAENRQGTLTEYCSTLMSLPTKISRCPHLLDFFKVRPDDLKLPTDNQTKKPETYLMPKDGKSTATDITGPIILQTYRAIANYEKTSGSEMALSTGDVVEVVEKSESGWWFCQMKAKRGWIPASFLEPLDSPDETEDPEPNYAGEPYVAIKAYTAVEGDEVSLLEGEAVEVIHKLLDGWWVIRKDDVTGYFPSMYLQKSGQDVSQAQRQIKRGAPPRRSSIRNAHSIHQRSRKRLSQDAYRRNSVRFLQQRRRQARPGPQSPGSPLEEERQTQRSKPQPAVPPRPSADLILNRCSESTKRKLASAV
# notes: Human by the cell line; also called p47phox, 45K
# B2: p22phox, endogenous in THP-1 cells (other)
# chain: GQIEWAMWANEQALASGLILITGGIVATAGRFTQWYFGAYSIVAGVFVCLLEYPRGKRKKGSTMERWGQKYMTAVVKLFGPFTRNYYVRAVLHLLLSVPAGFLLATILGTACLAIASGIYLLAAVRGEQWTPIEPKPRERPQIGGTIKQPPSNPPPRPPAEARKKPSEEEAAVAAGGPPGGPQVNPIPVTDEVV
# How the values were obtained:
# [1] = biological target: unlabeled p47phox (in vitro titration); test: fluorescence titration of BODIPY FL-labeled MPT63 with unlabeled p47phox, curve fitting, 25 C
# [2] = biological target: unlabeled TBK1 (in vitro titration); test: fluorescence titration of BODIPY FL-labeled MPT63 with unlabeled TBK1, curve fitting, 25 C
# unlabeled TBK1 (in vitro titration), sequence (Q9UHD2 whole entry): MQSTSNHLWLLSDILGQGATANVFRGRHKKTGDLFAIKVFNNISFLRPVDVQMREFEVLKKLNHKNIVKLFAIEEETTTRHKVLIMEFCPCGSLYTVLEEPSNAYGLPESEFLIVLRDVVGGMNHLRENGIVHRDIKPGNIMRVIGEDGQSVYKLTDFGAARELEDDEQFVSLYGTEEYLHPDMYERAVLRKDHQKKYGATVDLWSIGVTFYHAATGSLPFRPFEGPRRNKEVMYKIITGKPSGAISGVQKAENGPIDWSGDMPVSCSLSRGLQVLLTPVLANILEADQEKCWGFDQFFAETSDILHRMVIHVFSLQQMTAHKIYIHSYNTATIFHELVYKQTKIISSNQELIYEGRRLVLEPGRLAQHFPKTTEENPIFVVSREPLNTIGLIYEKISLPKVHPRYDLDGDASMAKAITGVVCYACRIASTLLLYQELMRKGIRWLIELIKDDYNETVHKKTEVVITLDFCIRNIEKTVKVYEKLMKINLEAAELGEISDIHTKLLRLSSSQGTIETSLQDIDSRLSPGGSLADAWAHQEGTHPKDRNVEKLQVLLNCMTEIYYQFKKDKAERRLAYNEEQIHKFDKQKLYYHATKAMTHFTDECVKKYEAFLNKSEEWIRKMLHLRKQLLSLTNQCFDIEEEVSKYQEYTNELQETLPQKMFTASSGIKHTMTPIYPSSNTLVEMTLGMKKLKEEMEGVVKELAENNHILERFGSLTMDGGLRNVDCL
# [3] = biological target: unlabeled HK2 (in vitro titration); test: fluorescence titration of BODIPY FL-labeled MPT64 with unlabeled HK2, curve fitting, 25 C
# [4] = biological target: unlabeled TBK1 (in vitro titration); test: fluorescence titration of BODIPY FL-labeled MPT64 with unlabeled TBK1, curve fitting, 25 C
# [5] = biological target: T1, p67phox, endogenous in THP-1 cells (human, UniProt P19878 1-526); test: co-IP in THP-1 cells treated with p47 peptide
# T1 sequence: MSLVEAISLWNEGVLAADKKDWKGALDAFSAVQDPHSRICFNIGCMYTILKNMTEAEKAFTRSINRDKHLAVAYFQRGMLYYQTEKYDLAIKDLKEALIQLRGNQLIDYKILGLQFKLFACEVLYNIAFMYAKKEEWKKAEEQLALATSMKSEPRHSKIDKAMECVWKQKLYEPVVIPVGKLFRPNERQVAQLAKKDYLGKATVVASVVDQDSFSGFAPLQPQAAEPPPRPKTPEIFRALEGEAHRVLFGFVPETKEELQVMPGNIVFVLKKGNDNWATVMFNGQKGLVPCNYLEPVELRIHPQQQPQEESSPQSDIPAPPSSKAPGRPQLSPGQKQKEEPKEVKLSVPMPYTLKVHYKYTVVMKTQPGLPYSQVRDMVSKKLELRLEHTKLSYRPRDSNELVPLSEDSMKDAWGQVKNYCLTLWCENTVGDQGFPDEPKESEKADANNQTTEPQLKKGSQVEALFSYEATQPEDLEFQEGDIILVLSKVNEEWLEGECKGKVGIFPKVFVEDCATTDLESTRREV
# [6] = biological target: B1; test: co-IP in THP-1 cells treated with p47 peptide
molecule,measurement,setting,value
recombinant MPT63 (rMPT63) (from UniProt P9WIP1 30-159),Kd,[1],345 nM
same,Kd,[2],178 nM
recombinant MPT64 (rMPT64) (from UniProt P9WIN9 24-228),Kd,[3],134 nM
same,Kd,[4],193 nM
B1,binding result,[5],binds
B2,binding result,[6],binds
